# Source: article PMC9132103 (Science (New York, N.Y.), 2021)
# T1: IL-10Rα ECD, from Expi-293 cells (for structural studies) (human, UniProt Q13651 20-235)
# T1 sequence (looked up): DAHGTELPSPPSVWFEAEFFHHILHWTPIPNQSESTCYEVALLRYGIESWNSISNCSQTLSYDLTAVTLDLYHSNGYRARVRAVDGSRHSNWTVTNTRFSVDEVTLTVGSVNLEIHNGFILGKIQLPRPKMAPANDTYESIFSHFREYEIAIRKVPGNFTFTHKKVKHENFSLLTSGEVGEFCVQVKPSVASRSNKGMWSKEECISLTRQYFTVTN
# B1: Affinity matured IL-10 (super-10, clone 5.1), soluble (ligand, UniProt P22301 19-178, looked up)
# chain: SPGQGTQSENSCTHFPGYLPNMLRDLRDAFSRVKTFFQMKDQLDNLLLKESLLEDFKGYLGCQALSEMIQFYLEEVMPQAENQDPDIKAHVQSLGENLKDLRLWLRRCHRFLPCENKSKAVEQVKNAFNKLQEKGIYKAMSEFDIFINYIEAYMTMKIRN
# What was measured:
# cryo-EM structure = target: the molecule itself; test: cryo-EM structure
# [1] = target: T1, IL-10Rα ECD, from Expi-293 cells (for …); test: SEC
binder,measurement,setting,value
B1,binding result,cryo-EM structure,binds
same,binding result,[1],binds
